# Source: article PMC9020658, “Mechanism of RNA polymerase I selection by transcription factor UAF”
# B1: DNA-110/-40 (downstream) (dsDNA)
# DNA 1: AGAGCGACAGAGAGGGCAAAAGAAAATAAAAGTAAGATTTTAGTTTGTAATGGGAGGGGGGGTTTAGTCAT
# DNA 2: ATGACTAAACCCCCCCTCCCATTACAAACTAAAATCTTACTTTTATTTTCTTTTGCCCTCTCTGTCGCTCT
# B2: DNA-180/-110 (upstream) (dsDNA)
# DNA 1: ATATACGCTAAGATTTTTGGAGAATAGCTTAAATTGAAGTTTTTCTCGGCGAGAAATACGTAGTTAAGGCA
# DNA 2: TGCCTTAACTACGTATTTCTCGCCGAGAAAAACTTCAATTTAAGCTATTCTCCAAAAATCTTAGCGTATAT
# Tests used:
# [1] = biological target: T1, UAF (Rrn5-Rrn9-Rrn10-Uaf30-H3-H4) (Saccharomyces cerevisiae? (budding …, UniProt Q02983;P53437;P38204;Q08747;P61830;P02309 1-363;1-365;1-145;1-228;1-136;1-103)); assay: filter binding; two repeats; text assigns tight Kd to -110/-40, fig. S7 legend order of the DNAs appears swapped; 30 mM Hepes-NaOH pH 7.5, 30 mM sodium citrate pH 6.0, 250 mM KCl, 2 mM DTT; filter binding 1 h at 4 C; footprinting on ice, then 2.5 mM MgCl2, 0.5 mM CaCl2, DNa
# [2] = biological target: T1, UAF (Rrn5-Rrn9-Rrn10-Uaf30-H3-H4); assay: filter binding; fitted Kd only in figure; legend order of the DNAs appears swapped; 30 mM Hepes-NaOH pH 7.5, 30 mM sodium citrate pH 6.0, 250 mM KCl, 2 mM DTT; filter binding 1 h at 4 C; footprinting on ice, then 2.5 mM MgCl2, 0.5 mM CaCl2, DNa
Binder,Kd [1] [nM],fold decrease in affinity [2]
B1,20.4,–
B2,–,~5 fold lower affinity than DNA-110/-40
